{"source": "paper PMC2848857", "about": "“The Crystal Structure of PPIL1 Bound to Cyclosporine A Suggests a Binding Mode for a Linear Epitope of the SKIP Protein” (PLoS ONE, 2010)", "binders": {"B1": {"name": "peptide A12 of the SKIP peptide array (peptide, UniProt Q13573 60-79, looked up)", "peptide": "DGGAFPEIHVAQYPLDMGRK", "notes": "The limits fit the twelfth peptide of a scan that starts at residue 49 with a one amino acid offset; source: synthetic peptide, spotted on cellulose membrane"}}, "molecular_target": "T1, GST-PPIL1 fusion protein (human, UniProt Q9Y3C6 1-166)", "T1 construct": "Peptidyl-prolyl isomerase like 1 (PPIL1), human, full length, cloned from a human cDNA library into pGEX-6P1; also called Recombinant GST-PPIL1; Peptidyl-prolyl isomerase like 1; source: E. coli Rosetta 2, glutathione-sepharose", "T1 sequence (looked up)": "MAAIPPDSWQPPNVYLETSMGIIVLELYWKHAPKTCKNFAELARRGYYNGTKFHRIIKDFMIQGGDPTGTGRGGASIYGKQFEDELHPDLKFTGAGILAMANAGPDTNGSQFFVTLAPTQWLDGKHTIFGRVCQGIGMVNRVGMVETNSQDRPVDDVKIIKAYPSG", "assay": "peptide or protein array; SKIP 20-mer peptides on cellulose membrane; GST-PPIL1 or GST alone at 40 µg/ml in blocking buffer (5% milk powder, 5% saccharose in TBS, pH 8.0), overnight at 4°C; detected with anti-GST antibody and chemiluminescence", "conditions": "both partners purified"}
{"binder": "B1", "values": [{"measurement": "binding result", "result": "binds"}]}
